Measured values as given in publication PMC11602162, “A compact stem-loop DNA aptamer targets a uracil-binding pocket in the SARS-CoV-2 nucleocapsid RNA-binding domain”.

Experiments:
N-NTD [1] = target: N-NTD (SARS-CoV-2 (Wuhan-Hu-1), UniProt P0DTC9 46-174); assay: competition fluorescence anisotropy; probe N11; 10 mM Tris-HCl pH 7.4, 150 mM NaCl, 1 mM MgCl2; FA with 0.1 mg/ml BSA at 25 C; BLI with 0.05% Tween-20; SEC at ambient temperature; details: protein: recombinant, tags: N-terminal 6xHis removed by HRV 3C
N-NTD [2] = target: T1, N-NTD (SARS-CoV-2 (Wuhan-Hu-1), UniProt P0DTC9 46-174); assay: fluorescence anisotropy; 10 mM Tris-HCl pH 7.4, 150 mM NaCl, 1 mM MgCl2; […]; BLI with 0.05% Tween-20; […]
N-NTD [3] = target: T1, N-NTD; assay: DSF; 10 mM Tris-HCl pH 7.4, 150 mM NaCl, 1 mM MgCl2; […]; BLI with 0.05% Tween-20; […]
N-NTD [4] = target: T1, N-NTD; assay: competition fluorescence anisotropy; 10 mM Tris-HCl pH 7.4, 150 mM NaCl, 1 mM MgCl2; […]; BLI with 0.05% Tween-20; […]
N-NTD [5] = target: T1, N-NTD; assay: competition fluorescence anisotropy; probe N11; 10 mM Tris-HCl pH 7.4, 150 mM NaCl, 1 mM MgCl2; […]; BLI with 0.05% Tween-20; […]
N-NTD [6] = target: T1, N-NTD; assay: fluorescence anisotropy; 1 mM Mg2+; 10 mM Tris-HCl pH 7.4, 150 mM NaCl, 1 mM MgCl2; […]; BLI with 0.05% Tween-20; […]
N protein full-length [7] = target: T2, N protein full-length (SARS-CoV-2 (Wuhan-Hu-1), UniProt P0DTC9 1-419); assay: BLI; immobilized DNA, avidity; 10 mM Tris-HCl pH 7.4, 150 mM NaCl, 1 mM MgCl2; FA with 0.1 mg/ml BSA at 25 C; BLI with 0.05% Tween-20; SEC at ambient temperature; details: protein: recombinant, tags: 6xHis-thioredoxin removed by HRV 3C, chain copies: 2, hairpin
N protein full-length [8] = target: T2, N protein full-length; assay: fluorescence anisotropy; Hill slope 2.3; 10 mM Tris-HCl pH 7.4, 150 mM NaCl, 1 mM MgCl2; FA with 0.1 mg/ml BSA at 25 C; BLI with 0.05% Tween-20; SEC at ambient temperature; details: protein: recombinant; tags: 6xHis-thioredoxin removed by HRV 3C; chain copies: 2; hairpin
N protein full-length [9] = target: T2, N protein full-length; assay: fluorescence anisotropy; Hill slope 0.91; 10 mM Tris-HCl pH 7.4, 150 mM NaCl, 1 mM MgCl2; FA with 0.1 mg/ml BSA at 25 C; BLI with 0.05% Tween-20; SEC at ambient temperature; details: protein: recombinant, tags: 6xHis-thioredoxin removed by HRV 3C, chain copies: 2, label: […], 5' biotin in BLI, hairpin, 2 bp stem

UCAUGUUAUGGUUGA (structured_RNA) [SL9 RNA]
Ki (N-NTD [1]; stem-loop): 15400 nM

GUCCCUCAUGUGGGC (structured_RNA) [SL10 RNA]
Ki (N-NTD [1]; stem-loop): 38700 nM

TCGGACATCGGATTGTCTGA (XNA, 2'-fluoro-dG at position 10 (loop G3); i6-FAMK at position 13 (loop T6)) [A58-20-2'FG3-iT6FAM]
Kd (N-NTD [2]): 13.9 nM

UCGGACAUCGGAUUGUCUGA (ssRNA) [A58-20_RNA]
binding signal (N-NTD [3]): -0.5 C (Tm shift) | Ki (N-NTD [4]): 90800 nM

ATCGGATT (ssDNA) [A58-8]
binding result (N-NTD [5]): no binding

TCGGACATCGGATTGTCTGA (ssDNA, fluorescein-dT (i6-FAMK) at position 13 (loop T6)) [A58-20-iT6FAM]
Kd (N-NTD [2]): 74 nM

TCGGACATTTTTTTGTCTGA (ssDNA) [A58-20 TTTTTT]
binding signal (N-NTD [3]): 0.5 C (Tm shift)

UUUUUUUUUUUUUUU (ssRNA) [poly-rU15]
Ki (N-NTD [1]): 7800 nM

TTTTTTTTTTTTTTT (ssDNA) [poly-dT15]
Ki (N-NTD [1]): 4120 nM

TCAGACATCGGATTGTCTGA (ssDNA) [A58-20_nwb1]
binding signal (N-NTD [3]): 4.5 C (Tm shift) | Kd (N-NTD [2]): 84.9 nM

TCGGACATCGGATTGTCTGA (ssDNA) [A58-20]
Kd (N-NTD [6]): 101 nM | Kd (N protein full-length [7]): 0.0101 nM | Ki (N-NTD [5]): 50.5 nM | Kd (N protein full-length [8]): 78.2 nM

TCGGACATCGGATTGTCCGA (ssDNA) [A58-20_nwb2]
binding signal (N-NTD [3]): 4.5 C (Tm shift) | Kd (N-NTD [2]): 87.9 nM

B1: A58 (A58-58) (ssDNA)
DNA: GCTGGATGTCACCGGATTGTCGGACATCGGATTGTCTGAGTCATATGACACATCCAGC
Ki (N-NTD [5]): 9.92 nM

TCGGACATCGGATTGTCTGA (XNA, 2'-fluoro-dG at position 10 (loop G3)) [A58-20-2'FG3]
Kd (N-NTD [2]): 74 nM

CATCGGATTG (ssDNA) [A58-10]
Kd (N protein full-length [9]): 24.9 nM | Kd (N protein full-length [7]; label: […], 5' biotin in BLI, […], 2 bp stem): 3.77 nM
